Data: PMC10485824 (Life Science Alliance, 2023)
Where “and” joins values, the source holds several entries; their conditions need not be identical. Identical values can stand only once.

B8: RIPK2^1−300 (domain or fragment, human, UniProt O43353 1-300, looked up)
chain: MNGEAICSALPTIPYHKLADLRYLSRGASGTVSSARHADWRVQVAVKHLHIHTPLLDSERKDVLREAEILHKARFSYILPILGICNEPEFLGIVTEYMPNGSLNELLHRKTEYPDVAWPLRFRILHEIALGVNYLHNMTPPLLHHDLKTQNILLDNEFHVKIADFGLSKWRMMSLSQSRSSKSAPEGGTIIYMPPENYEPGQKSRASIKHDIYSYAVITWEVLSRKQPFEDVTNPLQIMYSVSQGHRPVINEESLPYDIPHRARMISLIESGWAQNPDERPSFLKCLIELEPVLRTFEEI
modifications: labelled with the Monolith Protein labelling kit RED-NHS second generation (primary amines) for MST only
notes: RIPK2, human, kinase domain, residues 1-300; also called kinase domain of RIPK2 (residues 1–300); source: sf21 insect cells (baculovirus), purified (amylose resin, TEV cleavage, anion exchange)
B9: RIPK2^1−317 (domain or fragment, human, UniProt O43353 1-317, looked up)
chain: MNGEAICSALPTIPYHKLADLRYLSRGASGTVSSARHADWRVQVAVKHLHIHTPLLDSERKDVLREAEILHKARFSYILPILGICNEPEFLGIVTEYMPNGSLNELLHRKTEYPDVAWPLRFRILHEIALGVNYLHNMTPPLLHHDLKTQNILLDNEFHVKIADFGLSKWRMMSLSQSRSSKSAPEGGTIIYMPPENYEPGQKSRASIKHDIYSYAVITWEVLSRKQPFEDVTNPLQIMYSVSQGHRPVINEESLPYDIPHRARMISLIESGWAQNPDERPSFLKCLIELEPVLRTFEEITFLEAVIQLKKTKLQSV
notes: Incubated with nucleotide (ATP or AMPPCP) and MgCl2 before XIAP BIR2 was added; ATP-MgCl2 is said to promote full phosphorylation; Antiparallel dimer in the complex; also called RIPK2 kinase; RIPK2 wt; source: sf21 insect cells (baculovirus), purified (amylose resin, TEV cleavage, anion exchange)

Experiments:
RIPK2^1−300 [1] = target: T1, RIPK2^1−300 (human, UniProt O43353 1-300, labelled with the Monolith Protein labelling kit RED-NHS second generation (primary amines) for MST only); assay: MST
T1 chain: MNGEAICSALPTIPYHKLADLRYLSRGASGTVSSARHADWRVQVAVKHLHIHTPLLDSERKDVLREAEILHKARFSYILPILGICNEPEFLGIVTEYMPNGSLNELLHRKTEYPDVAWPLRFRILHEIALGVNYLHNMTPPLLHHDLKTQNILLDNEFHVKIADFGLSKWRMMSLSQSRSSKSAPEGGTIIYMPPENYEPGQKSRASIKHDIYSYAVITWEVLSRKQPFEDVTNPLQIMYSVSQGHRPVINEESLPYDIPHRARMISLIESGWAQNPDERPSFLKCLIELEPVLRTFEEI

RIPK2^1−300 [2] = target: B8; assay: native MS; complex fractions reapplied on Superdex 200 10/300 increase in 250 mM ammonium acetate with 1 mM DTT; concentration range of 10 μM; details: both partners purified
RIPK2^1−317 [3] = target: B9; assay: as above; details: both partners purified
RIPK2^1−300 [4] = target: B8; assay: MST; RIPK2 1-300 labelled with RED-NHS at 20 nM final, XIAP BIR2 constructs titrated from 1.2-2,500 nM; 20 mM Hepes pH 7.5, 150 mM NaCl, 2% glycerol, 0.05% Tween-20; 20°C; one-site binding model, triplicates; details: both partners purified
RIPK2^1−317 [5] = target: B9; assay: cryo-EM structure; single-particle cryo-EM of the SEC-purified RIPK2 1-317-XIAP BIR2 154-240 complex, Titan Krios 300 keV, untilted and tilted data, 3.15 Å; details: both partners purified
[6] = target: the molecule itself; assay: native MS; complex fractions reapplied on Superdex 200 10/300 increase in 250 mM ammonium acetate with 1 mM DTT; concentration range of 10 μM
[7] = target: the molecule itself; assay: SEC; RIPK2 1-317 wt or mutant with 500 μM ATP and 5 mM MgCl2 on ice, XIAP BIR2 154-240 added in excess (1:2), Superdex 200 3.2/300 increase in buffer C; fractions on SDS-PAGE

B1: XIAP BIR2^124–240 (domain or fragment, human)
chain: GPRDHFALDRPSETHADYLLRTGQVVDISDTIYPRNPAMYSEEARLKSFQNWPDYAHLTPRELASAGLYYTGIGDQVQCFCCGGKLKNWEPCDRAWSEHRRHFPNCFFVLGRNLNIRSE
notes: two additional residues after the P3C cleavage site; XIAP, human, linker region (124-154) and BIR2 domain, residues 124-240; also called long BIR2 construct; source: E. coli Rosetta 2, purified (glutathione sepharose, P3C cleavage, SEC); not shown: GST, N-terminal, cleaved
Kd (RIPK2^1−300 [1]): 0.0859 µM
stoichiometry N (RIPK2^1−300 [2]): 1 RIPK2 per XIAP BIR2 (printed as the ratio 2:2) and 2 RIPK2 per XIAP BIR2 (printed as the ratio 2:1)

B2: XIAP BIR2AG^124–240 (domain or fragment, human)
chain: GPRDHFALDRPSETHADYLLRTGQVVDISDTIYPRNPAMYSEEARLKSFQNWPDYAHLTPRELASAGLYYTGIGDQVQCFACGGKLKNWEPGDRAWSEHRRHFPNCFFVLGRNLNIRSE
notes: two additional residues after the P3C cleavage site; XIAP, human, residues 124-240 with the AG mutations C202A and C213G; For NMR uniformly 15N- or 13C/15N-labelled (M9 medium); also called AG construct (long); ^15N-labeled XIAP BIR2; source: E. coli Rosetta 2, purified (glutathione sepharose, P3C cleavage, SEC); not shown: GST, N-terminal, cleaved
stoichiometry N (RIPK2^1−317 [3]): 1 RIPK2 per XIAP BIR2 (printed as the ratio 2:2)

B3: XIAP BIR2^93−263 (domain or fragment, human)
chain: GPINGFYLENSATQSTNSGIQNGQYKVENYLGSRDHFALDRPSETHADYLLRTGQVVDISDTIYPRNPAMYSEEARLKSFQNWPDYAHLTPRELASAGLYYTGIGDQVQCFCCGGKLKNWEPCDRAWSEHRRHFPNCFFVLGRNLNIRSESDAVSSDRNFPNSTNLPRNPSMA
notes: two additional residues after the P3C cleavage site; XIAP, human, residues 93-263; source: E. coli Rosetta 2, purified (glutathione sepharose, P3C cleavage, SEC); not shown: GST, N-terminal, cleaved
binding result (RIPK2^1−300 [4]): binds

B4: XIAP BIR2^154–240 (domain or fragment, human, UniProt P98170 154-240, looked up)
chain: YPRNPAMYSEEARLKSFQNWPDYAHLTPRELASAGLYYTGIGDQVQCFCCGGKLKNWEPCDRAWSEHRRHFPNCFFVLGRNLNIRSE
notes: Plasmid pET49, a gift from Katrin Rittinger; also called short BIR2 construct; source: E. coli Rosetta 2, purified (glutathione sepharose, P3C cleavage, SEC); not shown: GST, N-terminal, cleaved
Kd (RIPK2^1−300 [4]): 0.0856 ± 0.0187 µM
stoichiometry N (RIPK2^1−317 [5]): 2 RIPK2 per XIAP BIR2 (printed as the ratio 2:1)
stoichiometry N (RIPK2^1−317 [3]): 1 RIPK2 per XIAP BIR2 (printed as the ratio 2:2)

B5: XIAP BIR2AG^154–240 (domain or fragment, human, UniProt P98170 154-240, looked up)
chain: YPRNPAMYSEEARLKSFQNWPDYAHLTPRELASAGLYYTGIGDQVQCFACGGKLKNWEPGDRAWSEHRRHFPNCFFVLGRNLNIRSE
notes: XIAP, human, BIR2 domain, residues 154-240 with the AG mutations C202A and C213G; Plasmid pET49, a gift from Katrin Rittinger; also called AG construct (short); source: E. coli Rosetta 2, purified (glutathione sepharose, P3C cleavage, SEC); not shown: GST, N-terminal, cleaved
stoichiometry N (RIPK2^1−317 [3]): 2 RIPK2 per XIAP BIR2 (printed as the ratio 2:1) and 1 RIPK2 per XIAP BIR2 (printed as the ratio 2:2)

B6: XIAP BIR2^93−240 (domain or fragment, human)
chain: GPINGFYLENSATQSTNSGIQNGQYKVENYLGSRDHFALDRPSETHADYLLRTGQVVDISDTIYPRNPAMYSEEARLKSFQNWPDYAHLTPRELASAGLYYTGIGDQVQCFCCGGKLKNWEPCDRAWSEHRRHFPNCFFVLGRNLNIRSE
notes: two additional residues after the P3C cleavage site; XIAP, human, residues 93-240; source: E. coli Rosetta 2, purified (glutathione sepharose, P3C cleavage, SEC); not shown: GST, N-terminal, cleaved
binding result (RIPK2^1−300 [4]): binds
Kd (RIPK2^1−300 [1]): 0.0929 µM

B7: XIAP BIR2^124−263 (domain or fragment, human)
chain: GPRDHFALDRPSETHADYLLRTGQVVDISDTIYPRNPAMYSEEARLKSFQNWPDYAHLTPRELASAGLYYTGIGDQVQCFCCGGKLKNWEPCDRAWSEHRRHFPNCFFVLGRNLNIRSESDAVSSDRNFPNSTNLPRNPSMA
notes: two additional residues after the P3C cleavage site; XIAP, human, residues 124-263; source: E. coli Rosetta 2, purified (glutathione sepharose, P3C cleavage, SEC); not shown: GST, N-terminal, cleaved
binding result (RIPK2^1−300 [4]): binds
Kd (RIPK2^1−300 [1]): 0.142 µM

B8
stoichiometry N [6]: 2 molecules of RIPK2

B9
stoichiometry N [6]: 2 molecules of RIPK2

B10: RIPK2^1−317 S282L (domain or fragment, human, UniProt O43353 1-317, looked up)
chain: MNGEAICSALPTIPYHKLADLRYLSRGASGTVSSARHADWRVQVAVKHLHIHTPLLDSERKDVLREAEILHKARFSYILPILGICNEPEFLGIVTEYMPNGSLNELLHRKTEYPDVAWPLRFRILHEIALGVNYLHNMTPPLLHHDLKTQNILLDNEFHVKIADFGLSKWRMMSLSQSRSSKSAPEGGTIIYMPPENYEPGQKSRASIKHDIYSYAVITWEVLSRKQPFEDVTNPLQIMYSVSQGHRPVINEESLPYDIPHRARMISLIESGWAQNPDERPLFLKCLIELEPVLRTFEEITFLEAVIQLKKTKLQSV
notes: Incubated with 500 μM ATP and 5 mM MgCl2 before XIAP BIR2 was added; also called RIPK2–S282L (recombinant); source: sf21 insect cells (baculovirus), purified as RIPK2 wt
binding result [7]: binds

B11: RIPK2^1−317 K209R (domain or fragment, human, UniProt O43353 1-317, looked up)
chain: MNGEAICSALPTIPYHKLADLRYLSRGASGTVSSARHADWRVQVAVKHLHIHTPLLDSERKDVLREAEILHKARFSYILPILGICNEPEFLGIVTEYMPNGSLNELLHRKTEYPDVAWPLRFRILHEIALGVNYLHNMTPPLLHHDLKTQNILLDNEFHVKIADFGLSKWRMMSLSQSRSSKSAPEGGTIIYMPPENYEPGQKSRASIRHDIYSYAVITWEVLSRKQPFEDVTNPLQIMYSVSQGHRPVINEESLPYDIPHRARMISLIESGWAQNPDERPSFLKCLIELEPVLRTFEEITFLEAVIQLKKTKLQSV
notes: Incubated with 500 μM ATP and 5 mM MgCl2 before XIAP BIR2 was added; also called RIPK2–K209R (recombinant); source: sf21 insect cells (baculovirus), purified as RIPK2 wt
binding result [7]: binds

B12: RIPK2^1−317 K209A (domain or fragment, human, UniProt O43353 1-317, looked up)
chain: MNGEAICSALPTIPYHKLADLRYLSRGASGTVSSARHADWRVQVAVKHLHIHTPLLDSERKDVLREAEILHKARFSYILPILGICNEPEFLGIVTEYMPNGSLNELLHRKTEYPDVAWPLRFRILHEIALGVNYLHNMTPPLLHHDLKTQNILLDNEFHVKIADFGLSKWRMMSLSQSRSSKSAPEGGTIIYMPPENYEPGQKSRASIAHDIYSYAVITWEVLSRKQPFEDVTNPLQIMYSVSQGHRPVINEESLPYDIPHRARMISLIESGWAQNPDERPSFLKCLIELEPVLRTFEEITFLEAVIQLKKTKLQSV
notes: Incubated with 500 μM ATP and 5 mM MgCl2 before XIAP BIR2 was added; also called RIPK2–K209A (recombinant); source: sf21 insect cells (baculovirus), purified as RIPK2 wt
binding result [7]: binds
